From PMC8748767 (Nature Communications, 2022)

B1: Tyrosine hydroxylase deletion mutant with the entire N-terminal removed (THNΔ70) (domain or fragment)
chain: not shown
notes: human tyrosine hydroxylase isoform TH1 with the entire N-terminal tail (residues 1-70) removed; numbers count on: isoform TH1; also called THΔN70; source: recombinant, construct derived from pETMBP1a/TH (Genscript), expressed and purified essentially as TH; not shown: His, N-terminal, cleaved; MBP, N-terminal, cleaved
B2: Tyrosine hydroxylase deletion mutant lacking the N-terminal 43 residues (THNΔ43) (domain or fragment)
chain: not shown
notes: human tyrosine hydroxylase isoform TH1 lacking the N-terminal 43 residues; numbers count on: isoform TH1; source: recombinant, construct derived from pETMBP1a/TH (Genscript), expressed and purified essentially as TH; not shown: His, N-terminal, cleaved; MBP, N-terminal, cleaved
B3: Tyrosine hydroxylase deletion mutant with the first 35 residues deleted (THNΔ35) (domain or fragment)
chain: not shown
notes: human tyrosine hydroxylase isoform TH1 with the first 35 residues deleted; numbers count on: isoform TH1; also called THΔN35; THΔ35; source: recombinant, construct derived from pETMBP1a/TH (Genscript), expressed and purified essentially as TH; not shown: His, N-terminal, cleaved; MBP, N-terminal, cleaved

Molecular target: the molecule itself
Experiment: SEC; preparative size-exclusion chromatography, HiLoad Superdex 200 prep grade (1.6 cm × 60 cm), 20 mM Na-Hepes pH 7, 200 mM NaCl

Stoichiometry N, 4:
B1
B2
B3
